Results as given in patent publication US20170298395A1, “AUTOTROPHIC HYDROGEN BACTERIA AND USES THEREOF” (Ohio State Innovation Foundation, priority 2011, published 2017).
Where two headings read alike, the source gives them in different places.

Legend:
[1] = tested on: RubisCO; assay type: cell-based, Ralstonia eutropha; details: for Chemoheterotrophic RubisCO activity: Table 12, chemoheterotrophic (repressed) growth; for level of RubisCO relative to wild-type CbbR: CA growth conditions
[2] = tested on: cbb promoter; assay type: cell-based, Ralstonia eutropha; details: for Chemoheterotrophic β-galactosidase activity: Table 12, chemoheterotrophic (repressed) growth
[3] = tested on: cbb promoter; assay type: binding, R. eutropha; details: for effect of ATP on CbbR binding to cbb promoter probe (phosphorimage, in words): in the presence of ATP; for effect of RuBP on CbbR binding to cbb promoter probe (phosphorimage, in words): in the presence of RuBP
[4] = tested on: cbbL transcript; assay type: cell-based, Ralstonia eutropha; details: chemoautotrophic growth; for increase in transcription over wild type CbbR (RT-PCR, FIG. 22): 26 cycles of PCR; for increase in cbb transcript over wild type CbbR (RT-PCR, FIG. 21): OD 0.2
[5] = tested on: Ralstonia eutropha cbbR deletion reporter strain; assay type: cell-based; details: chemoautotrophic, CO2/H2/O2 atmosphere, minimal media
[6] = Table 9, chemoautotrophic growth conditions
[7] = Table 12, chemoautotrophic (induced) growth

Row | Molecule | Chemoautotrophic RubisCO activity [1, 6] | Chemoautotrophic RubisCO activity [1, 7] | Chemoheterotrophic RubisCO activity [1] | Chemoautotrophic β-galactosidase activity [2, 6] | Chemoautotrophic β-galactosidase activity [2, 7] | Chemoheterotrophic β-galactosidase activity [2] | effect of ATP on CbbR binding to cbb promoter probe (phosphorimage, in words) [3] | effect of FBP on CbbR binding to cbb promoter probe (phosphorimage, in words) ([3]; in the presence of FBP) | effect of NADPH on CbbR binding to cbb promoter probe (phosphorimage, in words) ([3]; in the presence of NADPH) | effect of Ru5P on CbbR binding to cbb promoter probe (phosphorimage, in words) ([3]; in the presence of Ru5P) | effect of RuBP on CbbR binding to cbb promoter probe (phosphorimage, in words) [3] | increase in transcription over wild type CbbR (RT-PCR, FIG. 22) [4] | increase in cbb transcript over wild type CbbR (RT-PCR, FIG. 21) [4] | level of RubisCO relative to wild-type CbbR [1] | Doubling Time [5]
1 | wt CbbR: wild-type CbbR (R. eutropha), 317 amino acids, SEQ ID NO: 1 (protein) MSSFLRALTLRQLQIFVTVARHASFVRAAEELHLTQPAVSMQVKQLESVVGMALFERVKGQLTLTEPGDRLLHHASRILGEVKDAEEGLQAVKDVEQGSITIGLISTSKYFAPKLLAGFTALHPGVDLRIAEGNRETLLRLLQDNAIDLALMGRPPRELDAVSEPIAAHPHVLVASPRHPLHDAKGFDLQELRHETFLLREPGSGTRTVAEYMFRDHLFTPAKVITLGSNETIKQAVMAGMGISLLSLHTLGLELRTGEIGLLDVAGTPIERIWHVAHMSSKRLSPASESCRAYLLEHTAEFLGREYGGLMPGRRVA | 90 nmol/min/mg of protein | 139 nmol/min/mg of protein | 0.1 nmol/min/mg of protein | 3265 nmol/min/mg of protein | 3265 nmol/min/mg of protein | 3 nmol/min/mg of protein | enhancement of binding | no enhancement of binding | modest enhancement of binding | no enhancement of binding | enhancement of binding | – | – | – | –
2 | D144N (protein) MSSFLRALTLRQLQIFVTVARHASFVRAAEELHLTQPAVSMQVKQLESVVGMALFERVKGQLTLTEPGDRLLHHASRILGEVKDAEEGLQAVKDVEQGSITIGLISTSKYFAPKLLAGFTALHPGVDLRIAEGNRETLLRLLQNNAIDLALMGRPPRELDAVSEPIAAHPHVLVASPRHPLHDAKGFDLQELRHETFLLREPGSGTRTVAEYMFRDHLFTPAKVITLGSNETIKQAVMAGMGISLLSLHTLGLELRTGEIGLLDVAGTPIERIWHVAHMSSKRLSPASESCRAYLLEHTAEFLGREYGGLMPGRRVA | 188 nmol/min/mg of protein | 314 nmol/min/mg of protein | 26 nmol/min/mg of protein | 6932 nmol/min/mg of protein | 6932 nmol/min/mg of protein | 809 nmol/min/mg of protein | – | – | – | – | – | 1.8 fold | 2.4 fold | 2.2 fold | 6.8 h
3 | G205D (protein) MSSFLRALTLRQLQIFVTVARHASFVRAAEELHLTQPAVSMQVKQLESVVGMALFERVKGQLTLTEPGDRLLHHASRILGEVKDAEEGLQAVKDVEQGSITIGLISTSKYFAPKLLAGFTALHPGVDLRIAEGNRETLLRLLQDNAIDLALMGRPPRELDAVSEPIAAHPHVLVASPRHPLHDAKGFDLQELRHETFLLREPGSDTRTVAEYMFRDHLFTPAKVITLGSNETIKQAVMAGMGISLLSLHTLGLELRTGEIGLLDVAGTPIERIWHVAHMSSKRLSPASESCRAYLLEHTAEFLGREYGGLMPGRRVA | 133 nmol/min/mg of protein | 54 nmol/min/mg of protein | 10 nmol/min/mg of protein | 2634 nmol/min/mg of protein | 2241 nmol/min/mg of protein | 488 nmol/min/mg of protein | – | – | – | – | – | – | – | – | 7.8 h
4 | R272Q (protein) MSSFLRALTLRQLQIFVTVARHASFVRAAEELHLTQPAVSMQVKQLESVVGMALFERVKGQLTLTEPGDRLLHHASRILGEVKDAEEGLQAVKDVEQGSITIGLISTSKYFAPKLLAGFTALHPGVDLRIAEGNRETLLRLLQDNAIDLALMGRPPRELDAVSEPIAAHPHVLVASPRHPLHDAKGFDLQELRHETFLLREPGSGTRTVAEYMFRDHLFTPAKVITLGSNETIKQAVMAGMGISLLSLHTLGLELRTGEIGLLDVAGTPIEQIWHVAHMSSKRLSPASESCRAYLLEHTAEFLGREYGGLMPGRRVA | – | – | – | – | – | – | modest enhancement of binding | – | – | – | reduction of binding | – | – | – | –
5 | L79F (protein) MSSFLRALTLRQLQIFVTVARHASFVRAAEELHLTQPAVSMQVKQLESVVGMALFERVKGQLTLTEPGDRLLHHASRIFGEVKDAEEGLQAVKDVEQGSITIGLISTSKYFAPKLLAGFTALHPGVDLRIAEGNRETLLRLLQDNAIDLALMGRPPRELDAVSEPIAAHPHVLVASPRHPLHDAKGFDLQELRHETFLLREPGSGTRTVAEYMFRDHLFTPAKVITLGSNETIKQAVMAGMGISLLSLHTLGLELRTGEIGLLDVAGTPIERIWHVAHMSSKRLSPASESCRAYLLEHTAEFLGREYGGLMPGRRVA | 209 nmol/min/mg of protein | 304 nmol/min/mg of protein | 4 nmol/min/mg of protein | 6840 nmol/min/mg of protein | 6840 nmol/min/mg of protein | 218 nmol/min/mg of protein | – | – | – | – | – | – | – | – | 5.6 h
6 | E87K/G242S (protein) MSSFLRALTLRQLQIFVTVARHASFVRAAEELHLTQPAVSMQVKQLESVVGMALFERVKGQLTLTEPGDRLLHHASRILGEVKDAEKGLQAVKDVEQGSITIGLISTSKYFAPKLLAGFTALHPGVDLRIAEGNRETLLRLLQDNAIDLALMGRPPRELDAVSEPIAAHPHVLVASPRHPLHDAKGFDLQELRHETFLLREPGSGTRTVAEYMFRDHLFTPAKVITLGSNETIKQAVMAGMSISLLSLHTLGLELRTGEIGLLDVAGTPIERIWHVAHMSSKRLSPASESCRAYLLEHTAEFLGREYGGLMPGRRVA | 128 nmol/min/mg of protein | 198 nmol/min/mg of protein | 6 nmol/min/mg of protein | 4312 nmol/min/mg of protein | 4820 nmol/min/mg of protein | 303 nmol/min/mg of protein | – | – | – | – | – | – | – | – | 6.0 h
7 | A167V (protein) MSSFLRALTLRQLQIFVTVARHASFVRAAEELHLTQPAVSMQVKQLESVVGMALFERVKGQLTLTEPGDRLLHHASRILGEVKDAEEGLQAVKDVEQGSITIGLISTSKYFAPKLLAGFTALHPGVDLRIAEGNRETLLRLLQDNAIDLALMGRPPRELDAVSEPIVAHPHVLVASPRHPLHDAKGFDLQELRHETFLLREPGSGTRTVAEYMFRDHLFTPAKVITLGSNETIKQAVMAGMGISLLSLHTLGLELRTGEIGLLDVAGTPIERIWHVAHMSSKRLSPASESCRAYLLEHTAEFLGREYGGLMPGRRVA | 173 nmol/min/mg of protein | 370 nmol/min/mg of protein | 15 nmol/min/mg of protein | 7373 nmol/min/mg of protein | 7373 nmol/min/mg of protein | 768 nmol/min/mg of protein | – | – | – | – | – | 4.1 fold | 3.3 fold | ~2.7 fold | –
8 | A117V (protein) MSSFLRALTLRQLQIFVTVARHASFVRAAEELHLTQPAVSMQVKQLESVVGMALFERVKGQLTLTEPGDRLLHHASRILGEVKDAEEGLQAVKDVEQGSITIGLISTSKYFAPKLLVGFTALHPGVDLRIAEGNRETLLRLLQDNAIDLALMGRPPRELDAVSEPIAAHPHVLVASPRHPLHDAKGFDLQELRHETFLLREPGSGTRTVAEYMFRDHLFTPAKVITLGSNETIKQAVMAGMGISLLSLHTLGLELRTGEIGLLDVAGTPIERIWHVAHMSSKRLSPASESCRAYLLEHTAEFLGREYGGLMPGRRVA | 171 nmol/min/mg of protein | 314 nmol/min/mg of protein | 6 nmol/min/mg of protein | 6793 nmol/min/mg of protein | 6793 nmol/min/mg of protein | 254 nmol/min/mg of protein | – | – | – | – | – | – | 1.9 fold | 2.2 fold | –
